For assay [1], the target named is HLA-A*02:01 on T2 cells alone (no peptide added) (human). The assay is described as follows: flow cytometry, HLA-A2 staining of T2 without peptide. (Flow cytometry measures light scatter and fluorescence of single cells or particles in a stream.)
Assay [2] addresses HLA-A2 on MAC-1 and MAC-2A cells (Homo sapiens), A*02:0. The assay is described as follows: flow cytometry on MAC-1 cells, HLA-A2 staining; isotype control 93.6.
Assay [3] shares this target. The experiment in a line: flow cytometry on MAC-2A cells, HLA-A2 staining; isotype control 86.2.
Assay [4] deals with 017-mut1 peptide (…)/HLA-A*02:01 complex on T2 cells (human). The experiment in a line: flow cytometry, HLA-A2 staining of T2 pulsed with peptide A1 (T2 stabilisation).
In assay [5] the target is 017-mut2 peptide (…)/HLA-A*02:01 complex on T2 cells (human). The assay is described as follows: flow cytometry, HLA-A2 staining of T2 pulsed with peptide A2 (T2 stabilisation).
Assay [6] deals with 017-mut3 peptide (…)/HLA-A*02:01 complex on T2 cells (human). The experiment in a line: flow cytometry, HLA-A2 staining of T2 pulsed with peptide A3 (T2 stabilisation).
The target of assay [7] is 017-mut5 peptide (…)/HLA-A*02:01 complex on T2 cells (human). The assay is described as follows: flow cytometry, HLA-A2 staining of T2 pulsed with peptide A5 (T2 stabilisation).
The target in assay [8] is 017-mut7 peptide (…)/HLA-A*02:01 complex on T2 cells (human). The assay is described as follows: flow cytometry, HLA-A2 staining of T2 pulsed with peptide A7 (T2 stabilisation).
Assay [9] has as its target 017-mut8 peptide (…)/HLA-A*02:01 complex on T2 cells (human). The assay is described as follows: flow cytometry, HLA-A2 staining of T2 pulsed with peptide A8 (T2 stabilisation).
In assay [10] the target is 017-mut9 peptide (…)/HLA-A*02:01 complex on T2 cells (human). The assay is described as follows: flow cytometry, HLA-A2 staining of T2 pulsed with peptide A9 (T2 stabilisation).
Assay [11] has as its target T2+FoxP7-G10 (Homo sapiens), A*02:0. The experiment in a line: flow cytometry, HLA-A2 staining of T2 pulsed with peptide G10 (T2 stabilisation).
Assay [12] deals with Foxp3-7 peptide/HLA-A*02:01 complex on the cell surface (human). The experiment in a line: flow cytometry, HLA-A2 staining of T2 pulsed with the wild type Foxp3-7 peptide (T2 stabilisation).
For assay [13], the target named is HLA-A2 on MAC-1 and MAC-2A cells (Homo sapiens), A*02:0. The assay is described as follows: flow cytometry on MAC-1 cells, isotype control of BB7.
Assay [14] has the same target. The experiment in a line: flow cytometry on MAC-2A cells, isotype control of BB7.

As to BB7 (antibody), the Median:FITC-A in assay [1] came out at 6940; in [2], 35000; in assay [3], 44000; in assay [4] it was 29600; in assay [5], 11200; in assay [6], 35100. Besides, the Median:FITC-A in assay [7] was found to be 10400; in assay [8] it was 18600; in assay [9] it was 16500; in assay [10] it was 10400; in assay [11] it was 34100; in assay [12], 18000.

In the case of mIso (antibody), the Median:FITC-A stood at 93.6 in [13] and 86.2 in assay [14].
